Reference: patent publication US20220227883A1 (published 2022)
Several values for one entry are separate records, joined by “and”; a condition that tells them apart may be missing. Equal entries are not always repeated.

T1: KRAS wild type peptide on HLA-A*02:01 (human)
T1 peptide: KLVVVGAGGV

T2: KRAS G12V peptide on HLA-A*02:01 (human)
T2 peptide: KLVVVGAVGV

T3: KRAS G12D peptide on HLA-A*02:01 (human)
T3 peptide: KLVVVGADGV


Tests used:
[1] = biological target: HLA-A*02:01 presented KRAS^G12D epitope on cells (human); test: cell-based or functional assay
[2] = biological target: HLA-A*02:01 presented KRAS^G12V epitope on cells (human); test: cell-based or functional assay
[3] = biological target: HLA-A*02:01 presented KRAS^wild type epitope on cells (human); test: cell-based or functional assay
[4] = biological target: T1, KRAS wild type peptide on HLA-A*02:01; test: killing
Description: (§1) KTCR1, KRAS^G12V-specific, HLA-A*02:01-restricted TCR and KTCR2 and KTCR3, KRAS^G12D-specific, HLA-A*02:01-restricted TCRs were co cultured with K562-A*02:01 antigen presenting cells which were peptide pulsed with either the KRAS^G12D, KRAS^G12V, KRAS^WT peptide (10 μg/mL) for 5 hours at an effector to target cell ratio of 5:1.

[5] = biological target: T2, KRAS G12V peptide on HLA-A*02:01; test: multimer staining
[6] = biological target: T3, KRAS G12D peptide on HLA-A*02:01; test: multimer staining
[7] = biological target: A*02:01-KRAS^G12V tetramer (human) (UniProt P61769); test: tetramer staining of TCR-transduced T cells, flow cytometry (FIG. 24)
[8] = biological target: T2, KRAS G12V peptide on HLA-A*02:01; test: killing
Description: as §1

[9] = biological target: T3, KRAS G12D peptide on HLA-A*02:01; test: killing
Description: as §1

| Binder | Mean % cytotoxicity (cell lysis) of K562 A*02:01 + KRAS^G12D target cells, FVS780 flow cytometry, 5 hours, effector to target 5:1 [1] [%] | Mean % cytotoxicity (cell lysis) of K562 A*02:01 + KRAS^G12V target cells, FVS780 flow cytometry, 5 hours, effector to target 5:1 [2] [%] | Mean % cytotoxicity (cell lysis) of K562 + KRAS^Wild type target cells, FVS780 flow cytometry, 5 hours, effector to target 5:1 [3] [%] | binding result [4] | binding result [8] | binding result [9] | also measured |
| --- | --- | --- | --- | --- | --- | --- | --- |
| KTCR-1 (TCR, V domains shown) Valpha: TQLLEQSPQFLSIQEGENLTVYCNSSSVFSSLQWYRQEPGEGPVLLVTVVTGGEVKKLKRLTFQFGDARKDSSLHITAAQPGDTGLYLCAGEFESNAGNMLTFGGGTRLMVKP Vbeta: DGGITQSPKYLFRKEGQNVTLSCEQNLNHDAMYWYRQDPGQGLRLIYYSQIVNDFQKGDIAEGYSVSREKKESFPLTVTSAQKNPTAFYLCASSIWLGPKGPGELFFGEGSRLTVL | 4 | 16.5 | 2.9 | no recognition | – | – | IFNγ ELISpot, KTCR-1 CD8+ T cells co-cultured with PANC-1 (HLA-A*02:01^+ KRAS^G12D), Mean (SFU of IFNγ/2.0 × 10^4 cell input) [1]: 19.5; IFNγ ELISpot, KTCR-1 CD8+ T cells co-cultured with PANC-1 (HLA-A*02:01^+ KRAS^G12D), replicate (SFU of IFNγ/2.0 × 10^4 cell input) [1]: 13 and 18; IFNγ ELISpot, KTCR-1 CD8+ T cells co-cultured with CFPAC-1 (HLA-A*02:01^+ KRAS^G12V), Mean (SFU of IFNγ/2.0 × 10^4 cell input) [2]: 42; IFNγ ELISpot, KTCR-1 CD8+ T cells co-cultured with CFPAC-1 (HLA-A*02:01^+ KRAS^G12V), replicate (SFU of IFNγ/2.0 × 10^4 cell input) [2]: 52 and 42; binding result [5]: recognises; binding result [6]: no recognition; percent of TCR transduced T cells tetramer positive [7]: > 90% |
| KTCR-3 (TCR, V domains shown) Valpha: TQLLEQSPQFLSIQEGENLTVYCNSSSVFSSLQWYRQEPGEGPVLLVTVVTGGEVKKLKRLTFQFGDARKDSSLHITAAQPGDTGLYLCAGEFESNAGNMLTFGGGTRLMVKP Vbeta: DTEVTQTPKHLVMGMTNKKSLKCEQHMGHRAMYWYKQKAKKPPELMFVYSYEKLSINESVPSRFSPECPNSSLLNLHLHALQPEDSALYLCASSLQITTDGYTFGSGTRLTVV | 16.3 | 2 | 2.82 | no recognition | no recognition | recognises | IFNγ ELISpot, KTCR-3 CD8+ T cells co-cultured with PANC-1 (HLA-A*02:01^+ KRAS^G12D), Mean (SFU of IFNγ/2.0 × 10^4 cell input) [1]: 63; IFNγ ELISpot, KTCR-3 CD8+ T cells co-cultured with PANC-1 (HLA-A*02:01^+ KRAS^G12D), replicate (SFU of IFNγ/2.0 × 10^4 cell input) [1]: 73 and 53; IFNγ ELISpot, KTCR-3 CD8+ T cells co-cultured with CFPAC-1 (HLA-A*02:01^+ KRAS^G12V), Mean (SFU of IFNγ/2.0 × 10^4 cell input) [2]: 21; IFNγ ELISpot, KTCR-3 CD8+ T cells co-cultured with CFPAC-1 (HLA-A*02:01^+ KRAS^G12V), replicate (SFU of IFNγ/2.0 × 10^4 cell input) [2]: 13 and 19 |
| KTCR-2 (TCR, V domains shown) Valpha: GESVGLHLPTLSVQEGDNSIINCAYSNSASDYFIWYKQESGKGPQFIIDIRSNMDKRQGQRVTVLLNKTVKHLSLQIAATQPGDSAVYFCAENRDTDKLIFGTGTRLQVFP Vbeta: DGGITQSPKYLFRKEGQNVTLSCEQNLNHDAMYWYRQDPGQGLRLIYYSQIVNDFQKGDIAEGYSVSREKKESFPLTVTSAQKNPTAFYLCASSIWLGPKGPGELFFGEGSRLTVL | 19.1 | 4 | 4.79 | no recognition | no recognition | recognises | IFNγ ELISpot, KTCR-2 CD8+ T cells co-cultured with PANC-1 (HLA-A*02:01^+ KRAS^G12D), Mean (SFU of IFNγ/2.0 × 10^4 cell input) [1]: 98.5; IFNγ ELISpot, KTCR-2 CD8+ T cells co-cultured with PANC-1 (HLA-A*02:01^+ KRAS^G12D), replicate (SFU of IFNγ/2.0 × 10^4 cell input) [1]: 105 and 92; IFNγ ELISpot, KTCR-2 CD8+ T cells co-cultured with CFPAC-1 (HLA-A*02:01^+ KRAS^G12V), Mean (SFU of IFNγ/2.0 × 10^4 cell input) [2]: 11.5; IFNγ ELISpot, KTCR-2 CD8+ T cells co-cultured with CFPAC-1 (HLA-A*02:01^+ KRAS^G12V), replicate (SFU of IFNγ/2.0 × 10^4 cell input) [2]: 8 and 15 |
